Data reported in the supplement of paper PMC9170038.

System: MS2 coat protein
Experiment: apparent KD of MS2 coat protein; designed switch direction (-1 OFF switch, 1 ON switch): -1; higher = weaker reporter binding
How it was run: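 For each design, the apparent KD is the median over clusters of curves fitted to normalised cluster fluorescence. Clusters held RNA switches with common flanks, transcribed on Illumina chips by stalled E. coli RNA polymerase. These were titrated with SNAP-549-labelled MS2 coat protein, doubling from 0.7 or 1.5 nM to 3 µM, without input, with 200 uM small-molecule ligand, or with an oligonucleotide input.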

[1] = input ligand: microRNA oligo, concentration not stated
[2] = Eterna round: R95, input ligand: microRNA oligo, concentration not stated
[3] = Eterna round: R95, input ligand: FMN 200 uM
[4] = Eterna round: R95, input ligand: none

Row | Sequence | apparent KD of MS2 coat protein (input ligand: FMN 200 uM) [nM] | apparent KD of MS2 coat protein (input ligand: none) [nM] | apparent KD of MS2 coat protein [1] [nM] | apparent KD of MS2 coat protein [2] [nM] | apparent KD of MS2 coat protein [3] [nM] | apparent KD of MS2 coat protein [4] [nM]
1 | GACGUGUUAGGAUAUAGCUCUCGGGACAGCAAUGAUCCGAGUUAGAAGGAACAUGAGGAUCACCCAUGUUAUUU [Eternabot (L2) Solution 60] (Eterna round: R97, puzzle: Exclusion 4) | 18.4 | 21.1 |  |  |  | 
2 | AAUAAUAAAGUGAGGAUAUCUAGAGCCUCGGCUCUAGAGAAGGCACAUGAGGAUCACCCAUGUCUCAAUAAUAA [BmEx4/1-C5] (Eterna round: R97, puzzle: Brourd's mod of Exclusion 4) | 60.5 | 21.3 |  |  |  | 
3 | CUAAAAGUGAUCACAGGAACAUGAGGAUCACCCAUGUGCCUCAAGGAUAUGCACGGCUAUCCAGGGUAGAAGGUGAGAAUGCAC [Eternabot solution 30] (Eterna round: R96, puzzle: Exclusion NG 3) | 68.3 | 100 | 104 |  |  | 
4 | UAACAAAUGGUCAGGAUAUCACUCCCGGCCCAGAGUGAGAAGGGACAUGAGGAUCACCCAUGUAUGAUUCUCAC [jl-ex4-4.54 ViennaUCT mod] (Eterna round: R97, puzzle: Brourd's mod of Exclusion 4) | 19.7 | 15.1 |  |  |  | 
5 | AGUCGAAAGACAAAUAAAAACAUGAGGAUCACCCAUGUAAUGGGUGAAAACAAGCUCACCGUUCGUCUUAAAGAAAA [JL turnoff v1 57] (Eterna round: R96, puzzle: Sensor v2, turn-off variant) | 607 | 302 | 40.7 |  |  | 
6 | CCAGUGUAAGGAUAUCCGUUGCCGGAUAGAUGAUUAACAGCGGAGAAGGUACAUGAGGAUCACCCAUGUGUCCA [Eternabot (L1) Solution 8] (Eterna round: R97, puzzle: Exclusion 4) | 30.9 | 20.9 |  |  |  | 
7 | AACCCUUGUGUUAGGAUAUGUCACUACCAUAUGCGACAGAAGGAACAUGAGGAUCACCCAUGUGAGUUAGCCAA [Quesveququ] (puzzle: Brourd's mod of Exclusion 4) |  |  |  | 36 |  | 
8 | AGUAGUAGUAUCCGAUCUUACAUGAGGAUCACCCAUGUAUCUAGACGUGCACGCGAUGCUCGUCAGACUACCAGAUG [salish99_TOv1_r3_052] (puzzle: Sensor v3, turn-off variant 1) |  |  |  | 66.3 | 49.3 | 60.1
9 | UUAUUAUAUGUAGGAUAUGCAUAUUGUUGUUAUGCAGAAGGACAUGAGGAUCACCCAUGUAUAUUAUUGUUGUGUAUUAUAUAU [Title] (Eterna round: R96, puzzle: Exclusion NG 1) | 57.1 | 33 | 29.1 |  |  | 
10 | GGUUGGCGAGGAUAUACAUGAGGAUCACCCAUGUGAGAGAAAAAAGUGAGCAAGAAAAGUAGAAGGCGCUGACG [salish99_ex3_r3_030] (Eterna round: R96, puzzle: Exclusion 3) | 209 | 59.9 | 110 |  |  | 
11 | CAAAUCUGAGGAUAUCGAUUUUUGUACAUGAGGAUCACCCAUGUCCUUUUUAUUAAAUCCCGAGAAGGCAGUGUAU [JR_E5_Sub096] (puzzle: Exclusion 5) |  |  |  | 24.3 |  | 
12 | UUAUUAUAUGUAGGAUAUGCAUAUUGUUGUUAUGCAGAAGGACAUGAGGAUCACCCAUGUAUAUUAUUGUUAUAUAUUGUAUAU [Title] (Eterna round: R96, puzzle: Exclusion NG 1) |  |  | 18.2 |  |  | 
13 | CGGAUACAUGAGGAUCACCCAUGUGAGGAUAUCGUACGUUCGUCGAUAGACGAUCGUACGAGAAGGCAUGACCG [Mat - Exclusion 1 - Eli Mod - D34] (Eterna round: R97, puzzle: Exclusion 1) | 71.3 | 200 |  |  |  | 
14 | AACAGUACAGGAUAUACAUGAGGAUCACCCAUGUGAGAAACCACUGGCGUACCAGAAAGUAGAAGGGUACUGGA [Moding Maslow Revisited (73) 29] (Eterna round: R96, puzzle: Exclusion 3) | 307 | 146 | 160 |  |  | 
15 | GGUACUCAUGUGAGGAUAUGCUCGAAUGCAGACGAGCAGAAGGUACAUGAGGAUCACCCAUGUACCAUAAAGUA [Eternabot (Original) Solution 1] (Eterna round: R97, puzzle: Brourd's mod of Exclusion 4) | 23.6 | 13.1 |  |  |  | 
16 | AUAUAGAUAGUCAGGAUAUGCUAGUGAUAACAGUAGUAGAAGGGACAUGAGGAUCACCCAUGUAGAUACUGCAC [Brourd's EX4 #3] (Eterna round: R97, puzzle: Brourd's mod of Exclusion 4) | 19.6 | 19.3 |  |  |  | 
17 | AUCAUGUAAGGAUAUCUGACAUGUGACGAAAGUCACUGUUCAGAGAAGGUACAUGAGGAUCACCCAUGUAGAAC [Ex4-3: 43] (puzzle: Exclusion 4) |  |  |  | 62.8 |  | 
18 | AGCUGUGGCCGAGGAUAUCCAACUUCAAAUACCGACGUAUAGUCGGACAUGAGGAUCACCCAUGUGGAGAAGGCGGUCUCAGCA [Eli eng2 - 038] (Eterna round: R96, puzzle: Exclusion NG 2) | 24.2 | 15.6 | 12.5 |  |  | 
19 | GGUACUCAAAGAGUACCAAUACGAACAUGAGGAUCACCCAUGUAGGAUAUGCUACUCAAAGAGUAGCAGAAGGAUAUGAACCUU [Far Half Aptamer v9] (Eterna round: R96, puzzle: Exclusion NG 3) | 22.5 | 23.8 | 15.5 |  |  | 
20 | GGUUGACAUGAGGAUCACCCAUGUGAGGAUAUGCGAGAGAAAAAAGUGAGGAAGUUAAGCAGAAGGCGCUGUCG [salish99-ex1_r3_005] (puzzle: Exclusion 1) |  |  |  | 78 | 89.5 | 307
21 | UUAUCCGCUGAGGAUAUUAUCACUGAGAGGUGAUGAGAAGGCGGUACAUGAGGAUCACCCAUGUCUAUGGGCAG [Ex-6 Malc#23] (puzzle: Exclusion 6) |  |  |  | 228 | 584 | 864
22 | GGAUUCCAGUGAGGAUAUCCAAAUAAAAGCCAUGGAGAAGGCACAUGAGGAUCACCCAUGUAGGGCAAUAGCAGCGACCACUGC [Raqube] (Eterna round: R96, puzzle: Exclusion NG 1) | 59.4 | 29.3 | 27.6 |  |  | 
23 | UAUUAGCAAGCGAGAUCCCACAUGAGGAUCACCCAUGUAAUAAGCAUCCAGAAUUACUGGGUGCAAGCUCGUCUUAU [Winner reversed engineered 10] (Eterna round: R97, puzzle: Sensor, turn-off variant 1) | 45.4 | 42.9 |  |  |  | 
24 | AUGAGACAUGAGGAUCACCCAUGUGAGGAUAUGUAUGGAUGGUGGAAAGAAUGAGAGAACAGAAGGCACGUAGA [JR_Exclu1_Sub062] (puzzle: Exclusion 1) |  |  |  | 109 | 122 | 231
25 | CACCGUUAUAUAGGAUAUGUUACAUGAGGAUCACCCAUGUAAUAAAUGAGAAUUUCGAAUGUAAUACAGAAGGAUAGAAUCGGC [Ostracism 72 - Jieux - Exclusion NG 2] (Eterna round: R96, puzzle: Exclusion NG 2) | 27.2 | 22.9 | 18.1 |  |  | 
26 | GUUGUGUGAGGAUAUGCCUGGCCGUGAGGCCAGAUUGGGUGGCAGAAGGUACAUGAGGAUCACCCAUGUACGGG [salish99_ex4_4_005] (Eterna round: R97, puzzle: Exclusion 4) | 47.7 | 47.5 |  |  |  | 
27 | AAUGGGUGUGUGAGGAUAUACGAAGGCAAUUGCCAGUAGAAGGUACAUGAGGAUCACCCAUGUGUCCAAAAGAG [Tititemaon] (puzzle: Brourd's mod of Exclusion 4) |  |  |  | 9.11 | 12.8 | 13.2
28 | CCGACGUGAGGAUAUCCAUCUGGAUCAGACUAGAUCCUGAUGGAGAAGGCACAUGAGGAUCACCCAUGUUACGG [Eli 4x 4.41] (Eterna round: R97, puzzle: Exclusion 4) | 909 | 524 |  |  |  | 
29 | GGUUGACAUGAGGAUCACCCAUGUGAGGAUAUGCGAGAGAAAAAAGUGAGGAAGGUUUGCAGAAGGCGCUGUCG [salish99-ex1_r3_008] (puzzle: Exclusion 1) |  |  |  | 115 | 50.2 | 81.2
30 | UAAGUGUGAGGAUAUGGUAAAGAUAGAAUGAUGAAAGAACUCCAGAAGGCACAUGAGGAUCACCCAUGUAGAUG [Mat - Exclusion 4 - Mod of JL - D24] (puzzle: Exclusion 4) |  |  |  | 30.8 | 60.2 | 31.9
